Source: patent US20200207868A1

Molecular target: full-length extracellular region of human FGFR1 (human) (UniProt P11362)
Assay: BLI, target binding to sensor-immobilized Fab

Kd: 22.4 nM
B1: Library-S Fab against FGFR1 (Fab, V domains shown)
VH: EVQLVESGGGLVQPGGSLRLSCAASGFTFSSYGMHWVRQAPGKGLEWVAVISYDGSNKYYADSVKGRFTISRDNSKNTLYLQMNSLRAEDTAVYYCARSGRYGTYKGDFDYWGQGTLVTVSS
VL: DIQMTQSPSSLSASVGDRVTITCRASQGISNYLAWYQQKPGKAPKLLIYAASSLQSGVPSRFSGSRSGTDFTLTISSLQPEDFATYYCQQSYRSPLTFGQGTKVEIK
